B1: Thermococcus kodakaraensis Gins51 (natural protein, UniProt Q5JF31 1-188, looked up)
chain: MDIVKLRELLEAELSSTDLNELDEDFYVEFDSLIKALKLSAESSRERGEDVEERLYLAQLKIAESLMKEIIKLRLHKIVDLAVEGKIAEMTAEEKRLFNVIRAFIEREELPEISEEVQPQEESEAEAEYRSKEVPKEAYIIQIDLPAVLGPDMKEYGPFMAGDMAIIPTVIGRALVEREAARRVRIFL
notes: Gins51 subunit of the GINS complex of Thermococcus kodakaraensis; gins51 gene cloned into pET21a; also called TkoGins51; AB-type subunit of TkoGINS; source: E. coli codonPlus (DE3)-RIL, co-expressed with Gins23, purified (heat 80°C, HiTrap Phenyl, hydroxyapatite, HiTrap Q)
B2: Thermococcus kodakaraensis Gins23 (natural protein, UniProt Q5JIT2 1-164, looked up)
chain: MFTGKALIAVKVMKPFGDWKSGDIVLVEDWKARELWEAGVVEIVDETDKIIGEIDKVIAEERESEPLTLLPEGLYERAEFYAYYLENYVRLNPRESVDTINVKLTKLANLRKKLRDLKLIRFNKILKAVMLRPNSLELLSRLAPEERRIYLQMSKIRNEWLGDA
notes: Gins23 subunit of the GINS complex of Thermococcus kodakaraensis; gins23 gene cloned into modified pET28 (thrombin site replaced by a TEV protease site); 94 to 100 and 132 to 133 missing); The final atomic model holds seven amino acids derived from the N-terminal tag; also called TkoGins23; BA-type subunit of TkoGINS; source: E. coli codonPlus (DE3)-RIL, co-expressed with Gins51, purified (heat …
B3: Thermoplasma acidophilum GINS subunit (TacGins) (natural protein, UniProt Q9HJC8 1-233, looked up)
chain: MKPADIDKLISEIRTAIYAEQSHRKIIEIDPDIYRKVRAALSDLQAEASEYFQKQDIENYLTMNNRFQTLKRDFRSLFQRRFEKIVAKAIYDISGETLSLLTDEEKEFIEKIHNIITEEFESFIPKREEKNEARAEAQPAPADESPTAIADQKPQEEPQVVQDQHQPPAEIPSENIEIKKEDGRYVLVMITEDLPPIAQLDRNYSLHSNDLVYLPQDLASILAKRKVALVLDQ
notes: TacGins, conserved hypothetical protein of Thermoplasma acidophilum, gene Ta1042 cloned into pET21a; the homology model counts residues 1 to 233; also called Ta1042; source: E. coli BL21 codonPlus (DE3)-RIL, purified (heat 60°C, polyethyleneimine, HiTrap Phenyl, HiTrap Q)

Experiments:
[1] = biological target: Thermococcus kodakaraensis Gins51ΔC (Met1-Arg130) (Thermococcus kodakaraensis); assay: SEC; Superdex 200 PC 3.2/30 on a SMART system; 50 mM Tris-HCl pH 8.0, 0.15 M NaCl, 7 mM β-mercaptoethanol, 0.1 mM EDTA; 20 μl of each protein at 20 μM; fractions on SDS-PAGE
[2] = biological target: the molecule itself; assay: as above
[3] = biological target: the molecule itself; assay: SEC + other: electron microscopy; data not shown (Ogino et al.)

Molecule | stoichiometry N [2] | also measured
Thermococcus kodakaraensis Gins51ΔC (Met1-Arg130) (domain or fragment) |  | stoichiometry N [1]: 2
B1 | 2 | 
B2 | 2 | 
B3 |  | stoichiometry N [3]: 4

Reference: publication PMC3114041, “Architectures of archaeal GINS complexes, essential DNA replication initiation factors” (BMC Biology, 2011)
